The results in this text go back to patent US20210122827A1.

The assay addresses human GLP-1 receptor (human) (UniProt P43220). Description: cell-based or functional assay.

Sequence of human GLP-1 receptor (human) (P43220 24-463): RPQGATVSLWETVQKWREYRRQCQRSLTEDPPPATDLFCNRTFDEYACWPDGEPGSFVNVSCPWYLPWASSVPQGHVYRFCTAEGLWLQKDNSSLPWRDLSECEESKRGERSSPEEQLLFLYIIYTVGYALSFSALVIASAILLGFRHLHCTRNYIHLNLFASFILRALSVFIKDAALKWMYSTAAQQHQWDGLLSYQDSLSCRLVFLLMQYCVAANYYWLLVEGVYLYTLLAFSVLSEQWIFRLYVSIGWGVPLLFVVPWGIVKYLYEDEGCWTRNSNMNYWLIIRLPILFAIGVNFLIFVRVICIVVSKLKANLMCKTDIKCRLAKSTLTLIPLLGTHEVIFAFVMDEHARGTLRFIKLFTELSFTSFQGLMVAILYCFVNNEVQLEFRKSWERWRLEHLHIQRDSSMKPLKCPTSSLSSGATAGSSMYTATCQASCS

In turn, “GMA102 (proprietary fusion protein of GLP-1R antibody and GLP-1)” showed an EC50, CRE-Luciferase reporter gene assay on CHO-DHFR- cells co-expressing hGLP1R of 0.016 nM.
